We go through 4 sequences from a protein production outcome set (Wang et al. 2014).

The series can be described thus: label from the status in PepcDB records.
Consider “MKLNATYIKIRDKWWGLPLFLPSLILPIFAHINTFAHISSGEVFLFYLPLALMISMMMFFSWAALPGIALGIFVRKYAELGFYETLSLTANFIIIIILCWGGYRVFTPRRNNVSHGDTRLISQRIFWQIVFPATLFLILFQFAAFVGLLASRENLVGVMPFNLGTLINYQALLVGNLIGVPLCYFIIRVVRNPFYLRSYYSQLKQQVDAKVTKKEFALWLLALGALLLLLCMPLNEKSTIFSTNYTLSLLLPLMMWGAMRYGYKLISLLWAVVLMISIHSYQNYIPIYPGYTTQLTITSSSYLVFSFIVNYMAVLATRQRAVVRRIQRLAYVDPVVHLPNVRALNRALRDAPWSALCYLRIPGMEMLVKNYGIMLRIQYKQKLSHWLSPLLEPGEDVYQLSGNDLALRLNTESHQERITALDSHLKQFRFFWDGMPMQPQIGVSYCYVRSPVNHIYLLLGELNTVAELSIVTNAPENMQRRGAMYLQRELKDKVAMMNRLQQALEHNHFFLMAQPITGMRGDVYHEILLRMKGENDELISPDSFLPVAHEFGLSSSIDMWVIEHTLQFMAENRAKMPAHRFAINLSPTSVCQARFPVEVSQLLAKYQIEAWQLIFEVTESNALTNVKQAQITLQHLQELGCQIAIDDFGTGYASYARLKNVNADLLKIDGSFIRNIVSNSLDYQIVASICHLARMKKMLVVAEYVENEEIREAVLSLGIDYMQGYLIGKPQPLIDTLNEIEPIRESA”, for which the protein production entry is listed as “failed”.

On to “MKLNRAIGVIDSGVGGLTVAKELIRQLPKERIIYLGDTARCPYGPRSREEVRQFTWEMTEHLLDLNIKMLVIACNTATAVVLEEMQKQLPIPVVGVIHPGSRTALKVTNTYHVGIIGTIGTVKSGAYEEALKSINNRVMVESLACPPFVELVESGNFESEMAYEVVRETLQPLKNTDIDTLILGCTHYPILGPVIKQVMGDKVQLISSGDETAREVSTILYHSKMLNEGEEQSDHLFLTTGKIGLFKEIASKWFGQPIENVKHIHLEKE”, for which the protein production entry was “failed”.

As for “MKLRTQISILLIVFAVLLSGIVFAGFQLNKESVTGRQLDETTQHSERIAAGLDTRLKGLKRTVRLQATNPAIAAHGTPQQHYALKTMVNETMFNGVSVIHRNGTMTGIAAGLDPETRSELIGSDFSDRHYFQRARNGETYISAPVVADSGNYIVTISTPIYRDGAVVGTLNAALHLQDSSIFRMASKTANRDSSVFIRTQSGNQIYNRSAHLSSDPVTANATVNETGWIVQVQTSRNVLAGDLRTVTIYQLGGIGLVLALISGFGSILYTQILRYHRQLVRGFEALQRQEYGQQVAEEATGDWGQIFTAFNELSQTLAEYEEERVKHRNELQQERDRFRRLFQSIPEPAVVVEYTGNKTLIHNVNEAFEETFGYEASNAVGGDINDFIVPDGSLEEAESIDQLSSSGKQVTHEVRREAADGKRDFLLRSTPAVDGEDEVYFGVYIDITDRKQQERELTETNSVLSSVLDNMPVGILIEDADRTITTANKKLLDILDVSLTPSGLIGCEYAEIAETLKTQFADPDQFNETVNKIHSTRDAVFDEELLMADGRILARSYVSYSLPDGTGNIWLYRDITKNRQRERKLRETLEKTQKLIQAESIDEAATIAVEIANQTLSFPLSSVHLERKDGELEPAAITDAFEEGVGDTPVYQRTADNSSIDKLVWDVYTSGETRVLTDTGAEIPETISGMPSSGGIIQPMTNHGVLVTLGDSPNRFDEFDQYLVELLGAILATTLDRINQKQQIESQRDNLDLLNQIVRHDIRNDLQILLGRLDLLAERANDAQSEHVNAALRCAENAVELTQSARELSEVLLQNGTDSKPISLNRVVRQQIEEIRSANTDAEITINGSIPDVMIRANEMFDSVIRNLLKNAIQHNDKQDPEITISAIDQKEYVQLRIADNGPGVRDAQKESIFGKGEKELESSGTGIGLYLVSTLIESYGGDVWVEDNNPRGAVFVIELVKDS”, the protein production result is reported as “failed”.

Consider “MKLSFSLPSKSKPKVTATTADGNNAVDDGTSKEFVTEFDPSKTLANSIPKYVIPPIENTWRPHKKMKNLDLPLQSGNAGSGLEFEPEVPLPGTEKPDNISYGLNLRQKVKDDSIGGDAVEERKVSMGEQLMLQSLRRDLMSLADDPTLEDFESVPVDGFGAALMAGYGWKPGKGIGKNAKEDVEIKEYKKWTAKEGLGFDPDRSKVVDVKAKVKESVKLDKKGVGINGGDVFFVGKEVRIIAGRDVGLKGKIVEKPGSDFFVIKISGSEEEVKVGVNEVADLGSKEEEKCLKKLKDLQLNDREKDKKTSGRGRGAERGSRSEVRASEKQDRGQTRERKVKPSWLRSHIKVRIVSKDWKGGRLYLKKGKVVDVVGPTTCDITMDETQELVQGVDQELLETALPRRGGPVLVLSGKHKGVYGNLVEKDLDKETGVVRDLDNHKMLDVRLDQVAEYMGDMDDIEY”, for which the protein production result is “failed”.
